# Results: patent US9012398B2
# Molecular target: human GLP-1 receptor (human) (UniProt P43220)
row,Substance,GLP1cAMPma (3693) [EC50 (nM)] Mean Value [nM]
1,"N--ε^20-{2-(2-(2-(2-[2-(2-(4-(hexadecanoylamino)-4- carboxybutyrylamino)ethoxy)ethoxy]acetyl)ethoxy)ethoxy)acetyl)}- [Leu^14,Gln^27,Gln^28,Lys^20]Exendin-4-amide (from UniProt P26349) (peptide)",0.093
2,"N-epsilon20-{2-(2-(2-(2-[2-(2-(4-(hexadecanoylamino)-4-(S)- carboxybutyrylamino)ethoxy)ethoxy]acetyl)ethoxy)ethoxy)acetyl)}- [[Aib2,Lys20,Gln28]Exendin-4-amide (from UniProt P26349) (peptide)",0.0095
3,"N-ε^12-(2-(2-(2-(2-(2-(2-(2-(2-(2-Octadecanoylamino) ethoxy)ethoxy)acetylamino)ethoxy)ethoxy)acetylamino)ethoxy)ethoxy)acetyl)) [Lys^12,Leu^14,Arg^27,Gln^28]Exendin-4-(1-39)-amide (from UniProt P26349) (peptide)",0.0035
4,"N-ε^12-[2-(2-[2-(2-[2-(2-[4-(17-carboxyheptadecanoylamino)-4(S)- carboxybutyrylamino]ethoxy)ethoxy]acetylamino)ethoxy]ethoxy)acetyl] [Lys^12,Leu^14,Arg^27,Gln^28]Exendin-4-(1-39)-amide (from UniProt P26349) (peptide)",0.22
5,"N-ε^12-[2-(2-[2-(2-[2-(2-[4-(hexadecanoylamino)-4(S)- carboxybutyrylamino]ethoxy)ethoxy]acetylamino)ethoxy]ethoxy)acetyl] [Lys^12,Leu^14,Arg^27,Gln^28]Exendin-4-(1-39)-amide (from UniProt P26349) (peptide)",0.006
6,"N-ε^14-(2-(2-2-(2-(2-(4-(hexadecanoylamino)-4-(S)- carboxybytyrylamino)ethoxy)ethoxy)acetylamino)ethoxy)ethoxy)acetyl [Arg^12,Lys^l4,Val^27,Arg^28]Exendin-4-(1-39)-amide (from UniProt P26349) (peptide)",0.037
7,"N-ε^14-(2-(2-(2-(2-(2-(2-(2-(2-(2- (Octadecanoylamino)ethoxy)ethoxy)acetylamino)ethoxy)ethoxy)acetyl- amino)ethoxy)ethoxy)acetyl)[Arg^12,Lys^14,Val^27,Arg^28]Exendin-4-(1-39)- amide (from UniProt P26349) (peptide)",0.088
8,"N-ε^14-(2-(2-(2-(2-(2-(2-(4-(Octadecanoylamino)-4(S)- carboxybutyrylamino)ethoxy)ethoxy)acetylamino)ethoxy)ethoxy)acetyl [Arg^12,Lys^14,Val^27,Arg^28]Exendin-4-(1-39)-amide (from UniProt P26349) (peptide)",0.059
9,"N-ε^14-(2-(2-(2-(2-(2-(2-(17- carboxyheptadecanoylamino)ethoxy)ethoxy)acetylamino)ethoxy) ethoxy)acetyl[Arg^12,Lys^14,Val^27,Arg^28]Exendin-4-(1-39)-amide (from UniProt P26349) (peptide)",3.65
10,"N-ε^20-2-(2-(2-(2-(2-(2-(4-(Hexadecanoylamino)-4(S)- carboxybutyrylamino)ethoxy)ethoxy)acetylamino)ethoxy) ethoxy)acetyl[Arg^12,27,Leu^14,Lys^20,Gln^28]Exendin-4-(1-39)-peptide amide (from UniProt P26349)",0.033
11,"N-ε^20-(2-(2-(2-(2-(2-(2-(2-(2-(2- (Octadecanoylamino)ethoxy)ethoxy)acetylamino)ethoxy)ethoxy)acetyl- amino)ethoxy)ethoxy)acety))[Arg^12,27,28,Leu^14,Lys^20 Exendin-4(1- 39)amide (from UniProt P26349) (peptide)",0.007
12,"N-ε^20-(2-(2-(2-(2-(2-(2-(17- carboxyheptadecanoylamino)ethoxy)ethoxy)acetylamino)ethoxy) ethoxy)acetyl)[Arg12,Leu^14,Arg^27,Gln^28,Lys^20]Exendin-4 (1-39)amide (from UniProt P26349) (peptide)",5.45
13,"N-ε^20-(2-(2-(2-(2-(2-(2-(17- carboxyheptadecanoylamino)ethoxy)ethoxy)acetylamino)ethoxy) ethoxy)acetyl[Aib^2,Lys^20,Ala^29,Ser(O-benzyl)^39]Exendin-4-(1-39)-amide (from UniProt P26349) (peptide)",0.23
14,"N-ε^20-[2-(2-[2-(2-[2-(2-[4-(17-Carboxyheptadecanoylamino)-4(S)- carboxybutyrylamino]ethoxy)ethoxy]acetylamino)ethoxy]ethoxy)acetyl] [Aib^2;Gln^28,Lys^20]exendin-4(1-39)amide (from UniProt P26349) (peptide)",0.1
15,"N-ε^20-[2-(2-[2-(2-[2-(2-[4-(17-Carboxyheptadecanoylamino)-4(S)- carboxybutyrylamino]ethoxy)ethoxy]acetylamino)ethoxy]ethoxy)acetyl] [Imidazoylpropionyl^1;Gin^28,Lys^20]exendin-4(1-39)amide (from UniProt P26349) (peptide)",2.18
16,"N-ε^20-[2-(2-[2-(2-[2-(2-[4-(hexadecanoylamino)-4(S)- carboxybutyrylamino]ethoxy)ethoxy]acetylamino)ethoxy]ethoxy)acetyl] [Imidazoylpropionyl^1,Lys^20,Gln^28]Exendin-4-(1-39)-amide (from UniProt P26349) (peptide)",0.042
17,"N-ε^20-[2-(2-[2-(2-[2-(2-[4-(octadecanoylamino)-4(S)- carboxybutyrylamino]ethoxy)ethoxy]acetylamino)ethoxy]ethoxy)acetyl] [Aib^2,Lys^20,Ala^29,Ser(O-benzyl)^39]Exendin-4-(1-39)-amide (from UniProt P26349) (peptide)",0.006
18,"N-ε^20-[2-(2-[2-(2-[2-(2-[4-Octadecanoylamino-4(S)- carboxybutyrylamino]ethoxy)ethoxy]acetylamino)ethoxy]ethoxy)acetyl] [Arg^12,27,Gln^28,Leu^14,Lys^20 Exendin-4(1-39)amide (from UniProt P26349) (peptide)",0.044
19,"N-ε^20-[2-(2-[2-(2-[2-(2-[4-hexadecanoylamino-4(S)- carboxybutyrylamino]ethoxy)ethoxy]acetylamino)ethoxy]ethoxy)acetyl] [Arg^12,27,28,Leu^14,Lys^20]Exendin-4(1-39)amide (from UniProt P26349) (peptide)",0.027
20,"N-ε^20-{2-(2-(2-(2-[2-(2-(4-(hexadecanoylamino)-4- carboxybutyrylamino)ethoxy)ethoxy]acetyl)ethoxy)ethoxy)acetyl)}- [Gln^12,27,Leu^14,Lys^20,Gln^28]Exendin-4-amide (from UniProt P26349) (peptide)",0.027
21,"N-ε^20-{2-(2-(2-(2-[2-(2-(4-(hexadecanoylamino)-4- carboxybutyrylamino)ethoxy)ethoxy]acetylamino)ethoxy)ethoxy) acetyl)}-[Gln^28,Lys^20]Exendin-4-amide (from UniProt P26349) (peptide)",0.033
22,"N-ε^20-{2-(2-(2-(2-[2-(2-(4-(hexadecanoylamino)-4- carboxybutyrylamino)ethoxy)ethoxy]acetylamino)ethoxy)ethoxy) acetyl)}-[Leu^14,Gln^28,Lys^20]Exendin-4-amide (from UniProt P26349) (peptide)",0.023
23,"N-ε^20-{2-(2-(2-(2-[2-(2-(4-(hexadecanoylamino)-4- carboxybutyrylamino)ethoxy)ethoxy]acetylamino)ethoxy)ethoxy)acetyl)}- [Gln^12,Leu^14,Gln^28,Lys^20]Exendin-4-amide (from UniProt P26349) (peptide)",0.021
24,"N-ε^27-2-(2-2-(2-(2-(2-(2-(2-(2- (Octadecanoylamino)ethoxy)ethoxy)acetylamino)ethoxy)ethoxy)acetyl- amino)ethoxy)ethoxy)acetyl[Arg^12,Leu^14,Lys^27,Leu^28]Exendin-4- (1-39)-amide (from UniProt P26349) (peptide)",0.049
25,"N-ε^27-2-(2-2-(2-(2-(2-(4-(Hexadecanoylamino)-4(S)- carboxybutyrylamino)ethoxy)ethoxy)acetylamino)ethoxy) ethoxy)acetyl[Arg^12,Leu^14,Lys^27,Leu^28]Exendin-4-(1-39)-peptide amide (from UniProt P26349)",0.093
26,"N-ε^27-2-(2-2-(2-(2-(2-(4-(Octadecanoylamino)-4(S)- carboxybutyrylamino)ethoxy)ethoxy)acetylamino)ethoxy)ethoxy)acetyl [Arg^12,Leu^14,Lys^27,Leu^28]Exendin-4-(1-39)-amide (from UniProt P26349) (peptide)",0.14
27,"N-ε^27-2-(2-(2-(2-(2-(2-(4-(Octadecanoylamino)-4(S)- carboxybutyrylamino)ethoxy)ethoxy)acetylamino)ethoxy) ethoxy)acetyl[Arg^12,Leu^14,Lys^27,Ala^29]Exendin-4-(1-39)-amide (from UniProt P26349) (peptide)",0.24
28,"N-ε^27-(2-(2-(2-(2-(2-(2-(2-(2-(2- (Octadecanoylamino)ethoxy)ethoxy)acetylamino)ethoxy)ethoxy)acetyl- amino)ethoxy)ethoxy)acetyl)[Arg^12,Leu^14,Lys^27,Ala^29]Exendin-4-(1- 39)-amide (from UniProt P26349) (peptide)",0.08
29,"N-ε^27-(2-(2-(2-(2-(2-(2-(17- carboxyheptadecanoylamino)ethoxy)ethoxy)acetylamino)ethoxy) ethoxy)acetyl)[Leu^14,Arg^12,Lys^27]Exendin-4(1-39)amide (from UniProt P26349) (peptide)",0.35
30,"N-ε^27-(2-(2-(2-(2-(2-(2-(17- carboxyheptadecanoylamino)ethoxy)ethoxy)acetylamino)ethoxy) ethoxy)acetyl[Arg^12,Leu^14,Lys^27,Ala^29]Exendin-4-(1-39)-amide (from UniProt P26349) (peptide)",5.6
